{
  "source": "patent US20090081219A1",
  "about": "(Genmab, published 2009)",
  "binders": {"B1": {"name": "human monoclonal antibody AB1 (antibody, human IgG1, V domains shown)", "VH": "QVQLVQSGAEVKKPGSSVKVSCKASGGTFSRYPINWVRQAPGQGLEWMGRIIPILGIADYAQRFQGRVTITADKSTNTAYMELSSLRSEDTAVYYCARRDWGDYWGQGTLVTVSS", "VL": "not shown", "notes": "Human IgG1,kappa from a hybridoma (HuMAb mouse)"}, "B2": {"name": "human monoclonal antibody AB11 (antibody, human IgG1, V domains shown)", "VH": "B1 VH with S75F", "VL": "not shown", "notes": "as for B1"}, "B3": {"name": "human monoclonal antibody AB7 (antibody, V domains shown)", "VH": "B1 VH with P33A, G56D, R63K, G66D, R99K, G102F, Y104P", "VL": "not shown", "notes": "as for B1"}, "B4": {"name": "human monoclonal antibody AB12 (antibody, V domains shown)", "VH": "B1 VH with P33I, I57V, A58E, D59N, R63K, N77S, R99K, G102F", "VL": "not shown", "notes": "Human IgG1,kappa from a hybridoma (HuMAb mouse); also called AB12-FITC; FITC-labeled AB12"}},
  "key": {"[1]": {"target": "T1, recombinant human CD25 (rhCD25), NS/0-expressed recombinant protein from R&D Systems (cat#223-2A/CF) (human, UniProt P01589 22-213, limits assumed)", "T1 construct": "Coated on ELISA plates, and amine-coupled to a CM-5 chip for SPR; also called hrCD25; soluble CD25", "T1 sequence (looked up)": "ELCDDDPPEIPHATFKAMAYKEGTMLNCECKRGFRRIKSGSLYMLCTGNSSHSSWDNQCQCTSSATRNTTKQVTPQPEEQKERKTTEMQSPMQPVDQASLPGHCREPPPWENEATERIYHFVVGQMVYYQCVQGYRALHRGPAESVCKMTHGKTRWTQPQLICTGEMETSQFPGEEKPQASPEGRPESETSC", "experiment": "competition ELISA on coated rhCD25 (100 ng/ml); antibody supernatant added 10 min before rIL-2-biotin (50 ng/ml); streptavidin-poly-HRP/ABTS, OD405; blocked ligand: biotinylated IL-2", "description": "After washing (3×) the plates with PBST, 100 μl of sample antibody (concentration range: 10, 33, and 100 ng/ml) was added. […] After washing the plates 3× (in PBST), plates were incubated with streptavidin-poly-HRP (dilute 1:10,000 from stock) in PBS, and 100 μl was added to each well (1 hour, RT). After washing the plates (3× in PBST), 10 mg ABTS (Roche) per 10 ml ABTS buffer (Roche) was made and 100 μl added to each well."}, "[2]": {"target": "T1, recombinant human CD25 (rhCD25), …", "experiment": "SPR, BIAcore 3000, 25 C; rhCD25 amine-coupled to CM-5 chip at low density, antibody as analyte, 1:1 Langmuir model", "experimental": "Affinity analyses were assessed by monitoring changes in surface plasmon resonance using a BIAcore 3000 instrument. A BIAcore 3000 and BIAcore 3000 software control (BIAcore, Uppsala, Sweden, lot#BR-1100-43) was used. […] After blocking the residual binding sites of the activated sensor chip using ethanol-amine-HCl, a kinetic analysis was performed at 25° C. […] The results were visualized using a BIAcore 3000 (Bio-tek Instruments) and analyzed using the BIAevaluation Software 3.1 (BIAcore, Uppsala, Sweden) and Languir binding 1:1 was used as pre-fixed model."}},
  "note": "Substitutions are numbered along the chain they refer to.",
  "data": [
    {"binder": "B1", "values": [
      {"measurement": "binding result", "setting": "[1]", "result": "binds"}
    ]},
    {"binder": "B2", "values": [
      {"measurement": "binding result", "setting": "[1]", "result": "binds"}
    ]},
    {"binder": "B3", "values": [
      {"measurement": "binding result", "setting": "[1]", "result": "binds"}
    ]},
    {"binder": "B4", "values": [
      {"measurement": "Kd", "setting": "[2]", "result": 0.0474, "unit": "nM"}
    ]}
  ]
}
